Reference: paper PMC3686892

Tested on: C=C(OP(=O)(O)O)C(=O)O
Assay: anti-pHis dot-blot assay of autophosphorylation velocity
Type: biochemical, Escherichia coli
Details: phosphoryl donor; n = 3

With enzyme I (PtsI) (Escherichia coli K-12) the Km was 135 ± 30 µM.
